For this series, the system named is CCn1c(=N[N]c2sc3cc(S(=O)(=O)O)ccc3[n+]2CC)sc2cc(S(=O)(=O)O)ccc21. Briefly: purified protein. The following applies: pH 4.0; 30.0 °C.

In the case of AmPDH3 (Macropsalliota meleagris), the Km worked out at 13.2 ± 1.2 µM and the kcat/Km is 532000 M⁻¹ s⁻¹.
On to AmPDH2 (Macropsalliota meleagris), for which the Km is 109 ± 10 µM and the kcat/Km amounted to 38900 M⁻¹ s⁻¹.
The like results for AmPDH1 (Macropsalliota meleagris) were, in that order, 79.1 ± 9 µM and 94600 M⁻¹ s⁻¹.

As a reminder, the Km is the concentration of substrate that gives half-maximal velocity. The kcat/Km is the turnover number divided by the Michaelis constant.

The values above are taken from article PMC5352738, “Characterization of three pyranose dehydrogenase isoforms from the litter-decomposing basidiomycete Leucoagaricus meleagris (syn. Agaricus meleagris)” (Applied Microbiology and Biotechnology, 2016).
